A short description of this data set: label from the status in PepcDB records.

Consider “SLGELFAVFNEKLTIPEQEALMFLYAYMPTGDVTDYTGDYYLENVRLSDQARREMPWGKEIPDDVFRHFVLPIRVNNENLDDSRRVFYNELKDRVKNLSLHDAVLEVNHWCHEKVIYTPSDARTSAPLASVKTAYGRCGEESTFTVAALRSVGIPARQVYTPRWAHTDDNHAWVEAWVDGKWYFFGACEPEPVLNLGWFNAPASRGMLMHTKVFGRYTGQEEIMYETPNYTEINVIDNYAPTAKGSVLVTDAEGQPVADATVEFKVYNYAEFYTVATKHTDRSGHASLTAGKGDMLVWASKDGRFGYSKLSFGKDNELKITLDKNASETYSLPLDIVPPAEGANLPEVTPEQRTENDRRMAQEDSIRNAYVATFITEEQARTFAKENKLDETETVRLLIASRGNHQTLTDFLSDAVKADKAGQAISLLKVVSAKDLRDVSPEVLNDHLNNSGLPASEDFCSNVLNPRVANEMITPYKAFFRKEIPASEAEAFRKNPQALVEWCKKEITINNELNSQRIPMSPMGVWKARVADEKSRNIFFVSMARSLGIPAWIDEVTGKIQYRTFNDNNLKNGKVYDVDFEAAQQTQAPTGTLVARYRPIPSLSDPKYYSHFTLSKFRNGTFQLLNYDEGDVDMGGGATWSNLLKNGARLDTGYYMMVTGTRMASGAVLANVTFFTIEEGKTTTVDLVMRESKDQVQVIGNFNSESTYLPIGTSEPQSILQTCGRGYYVVAVLGAGQEPTNHALRDIAALSGEFEKWGRKMVLLFPSEEQYKKFRPSEFPGLPSTITYGIDVDGAIQKQIAESMKLPNSTILPMFIIGDTFNRVVFVSQGYTIGLGEQLMKVIHGEG”, for which the protein production entry is reported as “not failed”.

As to “SLGEMKRAAIIIDDFGGDVKGVDDFLTGEIPVTVAVMPFLEHSTKQAEIAQAAGLEVIVHMPLEPKKGKISWLGPSGITSNLSVGEVKSRVRKAFDDIPYAVGLNNHMGSKIVENEKIMRAILEVVKEKNAFIIDSGTSPHSLIPQLAEELEVPYATRSIFLDNTHSSRKEVIKNMRKLAKKAKQGSEPIGIGHVGVRGDETYAGIRSMLDEFQAESIQLVPVSQLLPSPIEEDHNKFWQQPFQAKE”, the protein production result is on record as “not failed”.

Regarding “SLHEEADHRVTDHGPRPFVVNIEDETKRNRAFRRALWTGDHLQVTLMSIQVGEDIGLEIHPHLDQFLRVEEGRGLVQMGHRQDNLHFQEEVFDDYAILIPAGTWHNVRNTGNRPLKLYSIYAPPQHPHGTVHETKAIAMAAEEHHHL”, the protein production entry was “not failed”.

With “SLIGFLSDRQGFEKQYHDIDLSSFGIREGISEIIASTGFEHPNAAPIGIVMKGERPFVRLFKGSHTWENVLKEKCLASNVVYDPILFVRSTFSDLVPSEFEYVDAGEFKFPVLKEAIAWVVFECINLRNTDQSLVADLVPLNAGFNERNIKELPVPNRGFNAVLEATVHATRYQLTGEEKYLELIRHYESLASKCGGDAEKKAMKLIYEALGL”, the protein production entry is reported as “not failed”.

In the case of “SLKRKLKPKRLQLPPQDVVFEGEAAMNEYTFYRNWVESWLQHIRSYYLLFIDGDPSLSKFFEIEICAHSWKRSTFDQQVFKFGLLWECVDIARSRTVYWQCALGTGHIQEDKVSEATSPFTDDSCTNSCLSRMTGQ”, the protein production result is “failed”.

On to “SLLCGPLRLSESGETWSEVWAAIPMSDPQVLHLQGGSQDGRLPRTIPLPSCKLSVPDPEERLDSGHVWKLQWAKQSWYLSASSAELQQQWLETLSTAAH”, for which the protein production entry is given as “not failed”.

On to SLMDVKCETPNCPFFMSVNTQPLCHECSERRQKNQN, for which the protein production result is given as “not failed”.

With “SLSSTELGDLFWSWLRDGLREGDIPVNTADACVHLTCGFVFISVPGVFFLFLKSHSRSCSSGLKESGRKEQVQAAFEKMRKHRVSDSRRFWQCCLYEEPGGRGRYKKLTGYLIKMSEIYANGNFPDDSLFLKVIN”, the protein production entry is listed as “not failed”.

In the case of “SLSTVELSGTVVKQGYLAKQGHKRKNWKVRRFVLRKDPAFLHYYDPSKEENRPVGGFSLRGSLVSALEDNGVPTGVKGNVQGNLFKVITKDDTHYYIQASSKAERAEWIEAIKKLT”, the protein production entry was “not failed”.

“SLYGNSSGGTLLTTTKEGQGKDSVELNYSGGSHDKNRTGLILQGGAKQSNQPSYVISSSYFDTDGYREHSAAHKILNNAKLTWNLDDGSKINWITNYVKINADDPQGLTRDQWKANPKQQVPFLQQFDVRKDIEQTQTGVTWSKPINDQNELYMMGYLGNRKVTQYQSIPKSTQDASKNQAGGVIDFERNYYGADLRWTGKELLPNTTFSVGVALDAMDEDRKGYENYVTVNNQPSYGVKGNLRRDEDNTLWNIDPYLQASWQFLPTWRLDTGVRYSNVHYKSDDHFIVIGNTAKDSNPDDSGKTDYSKVLPSAALSWQIVPELLAYVSYAKGFETPTFTEMAYNPDPDLSGFNFGLKASTSDTYEAGLKSQNRLGDFTLAAFQTKTKDDIVSAGSINGRATFRNADRTLREGIEFTWNKQLWRDLVLNTSYAYLNATFDADVPATASVAAITSGNQIPGVAKNQAYASLAWKPQTGFHGGIDAQYNDKIYVDDKNSDAAPSYTVVAAYAGYTWQMQDWKLNVYSRVDNMFDKSYVGSVIVNDGNSRFFEPADGRNWSAGLRVSKQF”: the protein production result is “failed”.

With “SNGQADRCDRTAYVSGLQPTISDIELFEVFNRVAHVEKVIVRNGAARHALIVFKTVQGLYQVLVNFQGTTLHGRQLHIRPLRESSHANSEAISTMFEKVKHQGNSGNSSYRQEHSFPEYRNQNPQASSYLPPNPRGHRNSTGCFNGGGGGYGRRRSAGGYNQYNQNKYPNETYPGMTLFDNHPVQQYSGFNPIDFRFDDYVEGAKRFDNLANLIRSSTPTDPFANYQKPCESTSTSRSRTNSAKDQKHGPPTWKMELQIKKDDHHHAGGGAATTGQKLSPQQFLAQIAQRQQSEQNADEVAKKKRPNLSVINPSLFYEQYPRTSSPVVYASKSKPSGHYDDKIASPHDPAVLAYSRLRVPQSAFDSLSPIDTDNCSFITKHLGPTTGVKRDLTNDELSDMIVSTGNLRINPTNIDHHDEPAPWSPLKRLRAESGSLSTAQVASPEFSPIKPKTMEFHETEDDVFETGPPPTYLSEGNENAEKKCVEQPKINYDDINNSRLPSNSHSAAPNSEKKHFVFPEYPMCRHSSVPSIAHLVGDLSDFCPHATADEKMLLDEASSIIENTTPAVSTAPAAAPGATMLQI”, the protein production result was “not failed”.

Consider “SQKSLKRGQELNNQYETKAKRLKIDPCLVVDSPFNHGFTAQEILKGAKNNGEISFLIRFWHLDQPQVVPSGIAYVEIPQMVLKFYENHCNFHDYLNNYIS”, for which the protein production result was “failed”.

For the sequence “SQLINLPMDQILYLSTSDIKHHVHLQTIHTLMDIRANLADFKKIHKKLYPCHRSYIVNTDMIISVNKTNYEATLINGQVLPVSRMKIGKIAQIVEERGR”, the protein production entry is “not failed”.

On to “SQNSKTPFPEYFWSWFETYKESSVSERTKLTYKNTFNVLKKHLGGIPIEEMDRRLYRKFIAEFGKDHAKSTVSKFNSLYHACVKDAMYDGDMTKDFIAGTDIVYNRKKTRK”, for which the protein production entry is listed as “failed”.

Consider “SQPDHGRLSPPEAPDRPTISTASETSVYVTWIPRGNGGFPIQSFRVEYKKLKKVGDWILATSAIPPSRLSVEITGLEKGISYKFRVRALNMLGESEPSAPSRPYVVSG”, for which the protein production entry is on record as “not failed”.

Turning to “SRGMTPGSRLIDYQLIDSTEELAAILGCGHPSSIHKITRVRLANDIPMAIESSHIPFELAGELNESHFQSSIYDHIERYNSIPISRAKQELEPSAATTEEANILGIQKGAPVLLIKRTTYLQNGTAFEHAKSVYRGDRYTFVHYMDRLS”, the protein production entry is recorded as “failed”.

In the case of “SRGPEPGPQPTMEGDVLDTLEALGYKGPLLEEQALTKAAEGGLSSPEFSELCIWLGSQIKSLCNLEESITSAGRDDLESFQLEISGFLKEMACPYSVLISGDIKDRLKKKEDCLKLLLFLSTELQASQILQNKKHKNSQLDKNSEVYQEVQAMFDTLGIPKSTTSDIPHMLNQVESKVKDILSKVQKNHVGKPLLKMDLNSEQAEQLERINDALSCEYECRRRMLMKRLDVTVQSFGWSDRAKVKTDDIARIYQPKRYALSPKTTITMAHLLAAREDLSKIIRTSSGTSREKTACAINKVGVSFSTVENELMISYLMFLQILVYFSFMSW”, the protein production entry is listed as “not failed”.

With “SRPRLSQLSVTDVTTSSLRLNWEAPPGAFDSFLLRFGVPSPSTLEPHPRPLLQRELMVPGTRHSAVLRDLRSGTLYSLTLYGLRGPHKADSIQGTARTL”, the protein production entry is reported as “not failed”.

Turning to “SSCGNDESDPDSTVTIAMATVEKQPQYDAPYLVLDNGEKLWVVQHIVPYRDLKAGERIFGNYSFLEAGESGFAYNIRLNDYTLVPVQKIIGLNPDNMDSIGNMKVQIKDMWPSDDYLNVRFMLNFPSPQKPILNLVVNEMIPWTKDGYAHLELRYNNNGSQGRLVPGMVSFKLDDYSPENSELKGIKVLVNPVDGEEKTYIFSYPLTGEDVPGFNPLDLAELK”, the protein production entry was “not failed”.

Regarding “SSEANSNSEFQTFIEQENQKAAIQAAISKLTETCWDKCVGKPGSKLDRAESECIANCAERFLDSSSFIMQRLMKKQ”, the protein production entry is recorded as “not failed”.

On to “SSFQSTTGHCVHMRGLPYRATENDIYNFFSPLNPMRVHIEIGPDGRVTGEADVEFATHEDAVAAMAKDKANMQHRYVELFLNSTAGTSG”, for which the protein production result is “not failed”.

On to “SSPQHLLVGGSGWNKIAIINKDTKEIVWEYPLEKGWECNSVAATKAGEILFSYSKGAKMITRDGRELWNIAAPAGCEMQTARILPDGNALVAWCGHPSTILEVNMKGEVLSKTEFETGIERPHAQFRQINKNKKGNYLVPLFATSEVREIAPNGQLLNSVKLSGTPFSSAFLDNGDCLVACGDAHCFVQLNLESNRIVRRVNANDIEGVQLFFVAQLFPLQNGGLYICNWQGHDREAGKGKHPQLVEIDSEGKVVWQLNDKVKFGMISTICPIRE”, for which the protein production result was “not failed”.

As to “SSPVPFGPEGRLEDKLHKPKATQTEVKPSVRFNLRTSKDPEHEGCYLSVGHSQPLEDCSFNMTAKTFFIIHGWTMSGIFENWLHKLVSALHTREKDANVVVVDWLPLAHQLYTDAVNNTRVVGHSIARMLDWLQEKDDFSLGNVHLIGYSLGAHVAGYAGNFVKGTVGRITGLDPAGPMFEGADIHKRLSPDDADFVDVLHTYTRSFGLSIGIQMPVGHIDIYPNGGDFQPGCGLNDVLGSIAYGTITEVVKCEHERAVHLFVDSLVNQDKPSFAFQCTDSNRFKKGICLSCRKNRCNSIGYNAKKMRNKRNSKMYLKTRAGMPFRVYHYQMKIHVFSYKNMGEIEPTFYVTLYGTNADSQTLPLEIVERIEQNATNTFLVYTEEDLGDLLKIQLTWEGASQSWYNLWKEFRSYLSQPRNPGRELNIRRIRVKSGETQRKLTFCTEDPENTSISPGQELWFRKCRDGWRMKNETSPTVELP”, the protein production result is reported as “not failed”.

Consider “SSQWHHPRSGWGRRRDFSGRSSAKKKGGNHIPERWKDYLPVGQRMPGTRFIAFKVPLQKSFEKKLAPEECFSPLDLFNKIREQNEELGLIIDLTYTQRYYKPEDLPETVPYLKIFTVGHQVPDDETIFKFKHAVNGFLKENKDNDKLIGVHCTHGLNRTGYLICIYLIDVEGVRPDDAIELFNRCRGHCLERQNYIEDLQNGPIRKNWNSSVPRSSDFEDSAHLMQPVHNKPVKQGPRYNLHQIQGHSAPRHFHTQTQSLQQSVRKFSENPHVYQRHHLPPPGPPGEDYSHRRYSWNVKPNASRAAQDRRRWYPYNYSRLSYPACWEWTQ”, for which the protein production entry is “not failed”.

For “SSSTEVKDNVLTEEEKAEGYTLLFNGKDFTGWKMFNGGDVKGWQVEDGVIVGYGNGGDVIADTTIKVSTDIVTVKNYHNFQIKWDWKIGAQGNSGFLYHVQEGPKYKAPFETGPEYQLIDDDNYPWVSETGKEGLEDWQKTGCNYAMYVPETKQVNPPGEWNSSMVLYKDGYVEHWLNGEKLFSFQEGSEDWKMRRYSGKWEAFPDYGISTTGKLCFQDHGSKVYFKNVKIKDLD”, the protein production result is listed as “not failed”.

The record behind these values is a protein production outcome set (Wang et al. 2014).
